Test results as given in the supplement of paper PMC10724198.
± gives the standard deviation of the averaged measurements.

Tests used:
[1] = system: Saccharomyces cerevisiae; experiment: protein stability index of tFT-peptide fusion (C-terminal peptide) (PSI (0-1 scale)); higher = more stable (slower turnover)
Protocol: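 MPS profiling in S. cerevisiae of the tFT-X12 degron library: putative degron peptides plus stable controls, 12 aa, fused to the C-terminus of a sfGFP-mCherry timer. Cells are FACS-sorted into 8 mCherry/sfGFP bins and deep-sequenced. PSI runs from 0 (unstable) to 1 (stable). Backgrounds are wild type, das1Δ and doa10Δ at 30 °C, and wild type, das1Δ, cdc34-1 and cdc53-1 at 37 °C; 2-3 technical replicates each.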

[2] = system: Saccharomyces cerevisiae; experiment: as above; details: genetic background: wild type; temperature: 30 C
[3] = genetic background: cdc34-1, temperature: 37 C
[4] = genetic background: cdc53-1, temperature: 37 C
[5] = genetic background: das1 deletion, temperature: 30 C
[6] = genetic background: das1 deletion, temperature: 37 C
[7] = genetic background: doa10 deletion, temperature: 30 C
[8] = genetic background: wild type, temperature: 30 C
[9] = genetic background: wild type, temperature: 37 C
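Note: PSI is a weighted mean of sequencing reads over stability bins, variants kept only with over 10 reads, mCherry proximal and sfGFP distal, peptide attached via GGGS linker.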

Row | Sequence | protein stability index [1, 3] | protein stability index [1, 4] | protein stability index [1, 5] | protein stability index [1, 6] | protein stability index [1, 7] | protein stability index [1, 8] | protein stability index [1, 9] | protein stability index [2]
1 | LGIPKLLCFVCT | 0.424 ± 0.011 | 0.432 ± 0.0061 | 0.304 ± 0.023 | 0.465 ± 0.02 | 0.248 ± 0.0065 | 0.29 ± 0.019 | 0.421 ± 0.017 | 0.386 ± 0.019
2 | LVCLFFLSSLFF | 0.547 ± 0.05 | 0.606 ± 0.0081 | 0.495 ± 0.046 | 0.602 ± 0.022 | 0.46 ± 0.016 | 0.464 ± 0.02 | 0.58 ± 0.017 | 0.4609 ± 0.0043
3 | SRGKMTIVSNQI | 0.6525 ± 0.00094 | 0.734 ± 0.011 | 0.652 ± 0.021 | 0.7389 ± 0.0072 | 0.642 ± 0.011 | 0.669 ± 0.016 | 0.704 ± 0.028 | 0.574 ± 0.15
4 | LFFFFLPHLILL | 0.3403 ± 0.00055 | 0.321 ± 0.041 | 0.321 ± 0.046 | 0.4803 ± 0.004 | 0.404 ± 0.058 | 0.26 ± 0.028 | 0.395 ± 0.011 | 0.377 ± 0.035
5 | EWRPYKRNKQSS | 0.63 ± 0.011 | 0.759 ± 0.053 | 0.638 ± 0.028 | 0.755 ± 0.023 | 0.223 ± 0.016 | 0.211 ± 0.028 | 0.4112 ± 0.0037 | 0.353 ± 0.13
6 | SPPPLFLIVLHL | 0.495 ± 0.0063 | 0.562 ± 0.028 | 0.446 ± 0.021 | 0.639 ± 0.012 | 0.4 ± 0.021 | 0.371 ± 0.048 | 0.52 ± 0.018 | 0.4283 ± 0.0032
7 | PPWRPVALLLLA | 0.206 ± 0.029 | 0.259 ± 0.022 | 0.247 ± 0.022 | 0.384 ± 0.007 | 0.0824 ± 0.02 | 0.0841 ± 0.018 | 0.117 ± 0.077 | 0.156 ± 0.013
8 | RLELTRIMIVAI | 0.06 ± 0.0059 | 0.08016 ± 0.00021 | 0.182 ± 0.024 | 0.214 ± 0.0094 | 0.109 ± 0.015 | 0.117 ± 0.028 | 0.102 ± 0.02 | 0.207 ± 0.035
9 | YYLVKCVYLRTT | 0.413 ± 0.013 | 0.4509 ± 0.0038 | 0.371 ± 0.029 | 0.504 ± 0.0098 | 0.155 ± 0.02 | 0.175 ± 0.0092 | 0.3201 ± 0.00022 | 0.254 ± 0.032
10 | DMWYLLWRVCYI | 0.51263 ± 0.00047 | 0.549 ± 0.056 | 0.43 ± 0.022 | 0.582 ± 0.02 | 0.37 ± 0.02 | 0.409 ± 0.026 | 0.56 ± 0.01 | 0.48 ± 0.028
11 | SLEACYCFVVLV | 0.187 ± 0.0034 | 0.199 ± 0.0087 | 0.214 ± 0.028 | 0.291 ± 0.0068 | 0.175 ± 0.019 | 0.186 ± 0.023 | 0.25 ± 0.015 | 0.2744 ± 0.00036
12 | IWIRLGSENTVI | 0.7085 ± 0.0014 | 0.7221 ± 0.007 | 0.646 ± 0.036 | 0.7489 ± 0.00087 | 0.672 ± 0.026 | 0.653 ± 0.032 | 0.78 ± 0.015 | 0.443 ± 0.22
13 | CNIYVLIIIKKY | 0.1831 ± 0.00032 | 0.298 ± 0.036 | 0.192 ± 0.026 | 0.344 ± 0.076 | 0.157 ± 0.0082 | 0.164 ± 0.039 | 0.325 ± 0.049 | 0.266 ± 0.1
14 | LNALSHCRAICS | 0.632 ± 0.027 | 0.687 ± 0.0091 | 0.604 ± 0.023 | 0.692 ± 0.015 | 0.238 ± 0.0073 | 0.268 ± 0.028 | 0.462 ± 0.0055 | 0.379 ± 0.039
15 | TLDWKFGRGGIG | 0.315 ± 0.0073 | 0.4083 ± 0.0019 | 0.348 ± 0.017 | 0.406 ± 0.017 | 0.33 ± 0.0094 | 0.338 ± 0.01 | 0.4041 ± 0.0037 | 0.375 ± 0.0046
16 | QVGRPRVGFSRR | 0.704 ± 0.035 | 0.7483 ± 1.4e-05 | 0.652 ± 0.0075 | 0.75 ± 0.016 | 0.657 ± 0.016 | 0.66 ± 0.02 | 0.7302 ± 0.0063 | 0.764 ± 0.014
17 | VTLLCRFFMLVF | 0.454 ± 0.01 | 0.5149 ± 0.00071 | 0.402 ± 0.025 | 0.543 ± 0.01 | 0.273 ± 0.014 | 0.289 ± 0.014 | 0.428 ± 0.017 | 0.369 ± 0.021
18 | VVTLHISLFYPG | 0.447 ± 0.033 | 0.511 ± 0.018 | 0.406 ± 0.031 | 0.5 ± 0.0056 | 0.418 ± 0.06 | 0.415 ± 0.029 | 0.461 ± 0.019 | 0.479 ± 0.023
19 | FSSWPFFSFYLS | 0.681 ± 0.032 | 0.689 ± 0.021 | 0.617 ± 0.036 | 0.743 ± 0.026 | 0.415 ± 0.034 | 0.392 ± 0.024 | 0.6048 ± 0.0018 | 0.518 ± 0.036
20 | LFHPPSFSLRLF | 0.681 ± 0.038 | 0.738 ± 0.025 | 0.678 ± 0.019 | 0.748 ± 0.023 | 0.301 ± 0.038 | 0.348 ± 0.025 | 0.5619 ± 0.0044 | 0.528 ± 0.25

Row | Sequence | protein stability index [1, 3] | protein stability index [1, 4] | protein stability index [1, 5] | protein stability index [1, 6] | protein stability index [1, 7] | protein stability index [1, 8] | protein stability index [1, 9] | protein stability index [2]
21 | VFFCVLRVFFSA | 0.0798 ± 0.024 | 0.161 ± 0.015 | 0.175 ± 0.024 | 0.291 ± 0.0075 | 0.114 ± 0.013 | 0.132 ± 0.029 | 0.195 ± 0.0091 | 0.193 ± 0.017
22 | LFLFVGCSVRRL | 0.528 ± 0.023 | 0.58092 ± 0.00029 | 0.392 ± 0.034 | 0.599 ± 0.021 | 0.374 ± 0.0049 | 0.391 ± 0.014 | 0.5744 ± 0.0024 | 0.4951 ± 0.0047
23 | FLPLFFLPCLSV | 0.363 ± 0.0091 | 0.372 ± 0.031 | 0.318 ± 0.011 | 0.431 ± 0.015 | 0.315 ± 0.011 | 0.319 ± 0.019 | 0.413 ± 0.0059 | 0.361 ± 0.022
24 | KLLDHFVKIRVY | 0.164 ± 0.021 | 0.2 ± 0.0077 | 0.225 ± 0.044 | 0.416 ± 0.0072 | 0.0632 ± 0.0066 | 0.0674 ± 0.024 | 0.0534 ± 0.03 | 0.0988 ± 0.0069
25 | GFRVPVVVGVRG | 0.449 ± 0.023 | 0.475 ± 0.03 | 0.334 ± 0.041 | 0.531 ± 0.0077 | 0.2939 ± 0.0024 | 0.33 ± 0.042 | 0.4999 ± 0.0013 | 0.432 ± 0.0044
26 | PAPQAVRIFSLY | 0.62 ± 0.089 | 0.74 ± 0.026 | 0.653 ± 0.044 | 0.744 ± 0.026 | 0.179 ± 0.01 | 0.183 ± 0.022 | 0.39 ± 0.019 | 0.428 ± 0.046
27 | RIKVTRRIIIYA | 0.335 ± 0.036 | 0.383 ± 0.07 | 0.239 ± 0.054 | 0.446 ± 0.014 | 0.14 ± 0.0072 | 0.179 ± 0.022 | 0.302 ± 0.018 | 0.299 ± 0.011
28 | LLDIYFILLVWF | 0.263 ± 0.02 | 0.237 ± 0.03 | 0.267 ± 0.023 | 0.399 ± 0.024 | 0.359 ± 0.021 | 0.258 ± 0.019 | 0.432 ± 0.066 | 0.346 ± 0.29
29 | VHNIDLFVVCYI | 0.433 ± 0.025 | 0.443 ± 0.014 | 0.251 ± 0.047 | 0.482 ± 0.0094 | 0.222 ± 0.0048 | 0.258 ± 0.027 | 0.451 ± 0.015 | 0.346 ± 0.0067
30 | SPAIRAILAPAG | 0.476 ± 0.059 | 0.504 ± 0.013 | 0.404 ± 0.021 | 0.546 ± 0.0073 | 0.402 ± 0.014 | 0.43 ± 0.036 | 0.532 ± 0.0079 | 0.445 ± 0.034
31 | SCCGCGFGLLFC | 0.731 ± 0.011 | 0.807 ± 0.0017 | 0.631 ± 0.023 | 0.7812 ± 0.0002 | 0.643 ± 0.032 | 0.632 ± 0.016 | 0.7399 ± 0.0056 | 0.73 ± 0.018
32 | VYCQRFMLLFTP | 0.527 ± 0.059 | 0.535 ± 0.019 | 0.459 ± 0.03 | 0.581 ± 0.021 | 0.553 ± 0.011 | 0.433 ± 0.0094 | 0.55 ± 0.0071 | 0.4872 ± 0.0007
33 | VYVLVFNMENIS | 0.5603 ± 0.0009 | 0.588 ± 0.0096 | 0.382 ± 0.03 | 0.616 ± 0.011 | 0.382 ± 0.0068 | 0.401 ± 0.033 | 0.585 ± 0.036 | 0.4891 ± 0.0047
34 | IGLSIWSVVSAL | 0.652 ± 0.042 | 0.689 ± 0.015 | 0.535 ± 0.016 | 0.6826 ± 0.0014 | 0.253 ± 0.0069 | 0.286 ± 0.033 | 0.5056 ± 0.0043 | 0.392 ± 0.024
35 | LLLLGVSLFLVR | 0.282 ± 0.0053 | 0.378 ± 0.011 | 0.265 ± 0.019 | 0.454 ± 0.0081 | 0.223 ± 0.013 | 0.255 ± 0.018 | 0.4257 ± 0.0031 | 0.3657 ± 0.00075
36 | YFVLVRLICFLL | 0.347 ± 0.0092 | 0.438 ± 0.0066 | 0.289 ± 0.035 | 0.472 ± 0.01 | 0.194 ± 0.011 | 0.216 ± 0.039 | 0.373 ± 0.013 | 0.244 ± 0.085
37 | DISWVFVLLIFF | 0.333 ± 0.036 | 0.402 ± 0.012 | 0.3 ± 0.033 | 0.485 ± 0.029 | 0.318 ± 0.023 | 0.279 ± 0.039 | 0.445 ± 0.011 | 0.382 ± 0.026
38 | VFILGFLCLLFF | 0.403 ± 0.03 | 0.428 ± 0.014 | 0.342 ± 0.017 | 0.497 ± 0.077 | 0.362 ± 0.045 | 0.334 ± 0.024 | 0.445 ± 0.054 | 0.355 ± 0.036
39 | CCSRYLSNLCPI | 0.674 ± 0.052 | 0.751 ± 0.036 | 0.631 ± 0.016 | 0.7263 ± 0.0048 | 0.657 ± 0.033 | 0.648 ± 0.0072 | 0.726 ± 0.017 | 0.0813 ± 0.051
